Data published in patent publication US20180155451A1 (published 2018).

T1: FcγRIIa R (human, UniProt P12318 34-217)
T1 construct: extracellular domain; also called FcgRIIa R type; 2aR
T1 sequence (looked up): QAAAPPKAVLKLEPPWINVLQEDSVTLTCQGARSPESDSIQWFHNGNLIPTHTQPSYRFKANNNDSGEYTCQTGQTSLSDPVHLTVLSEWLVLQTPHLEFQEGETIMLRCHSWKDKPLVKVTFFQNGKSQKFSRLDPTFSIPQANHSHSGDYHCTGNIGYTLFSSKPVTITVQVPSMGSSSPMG

B1: GpH7-B3 variant E333_09D/GpL16-k0 (antibody, human IgG1, kappa)
heavy: not shown
light: DIVMTQSPLSLPVTPGEPASISCQASESLVHSNRNTYLHWYLQKPGQSPQLLIYKVSNRFSGVPDRFSGSGSGTDFTLKISRVEAEDVGVYYCSQNTHVPPTFGQGTKVEIERTVAAPSVFIFPPSDEQLKSGTASVVCLLNNFYPREAKVQWKVDNALQSGNSQESVTEQDSKDSTYSLSSTLTLSKADYEKHKVYACEVTHQGLSSPVTKSFNRGEC
notes: also called Ho Ab E333_09D
B2: GpH7-B3 variant E333_15Y/GpL16-k0 (antibody, human IgG1, kappa)
heavy: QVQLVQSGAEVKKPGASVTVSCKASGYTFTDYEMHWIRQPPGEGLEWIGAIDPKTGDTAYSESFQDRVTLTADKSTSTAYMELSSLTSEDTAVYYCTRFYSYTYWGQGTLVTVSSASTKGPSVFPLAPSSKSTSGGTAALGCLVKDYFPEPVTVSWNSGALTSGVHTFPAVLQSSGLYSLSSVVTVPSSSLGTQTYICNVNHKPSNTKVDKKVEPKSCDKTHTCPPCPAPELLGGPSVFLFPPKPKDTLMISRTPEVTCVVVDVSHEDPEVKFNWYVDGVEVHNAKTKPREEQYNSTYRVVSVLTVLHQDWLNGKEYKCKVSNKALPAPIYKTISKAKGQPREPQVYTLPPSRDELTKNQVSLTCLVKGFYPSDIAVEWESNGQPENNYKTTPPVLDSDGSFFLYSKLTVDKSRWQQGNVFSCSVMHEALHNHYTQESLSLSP
light: DIVMTQSPLSLPVTPGEPASISCQASESLVHSNRNTYLHWYLQKPGQSPQLLIYKVSNRFSGVPDRFSGSGSGTDFTLKISRVEAEDVGVYYCSQNTHVPPTFGQGTKVEIERTVAAPSVFIFPPSDEQLKSGTASVVCLLNNFYPREAKVQWKVDNALQSGNSQESVTEQDSKDSTYSLSSTLTLSKADYEKHKVYACEVTHQGLSSPVTKSFNRGEC
notes: also called Ho Ab E333_15Y
B3: GpH7-B3 variant G236_14T/GpL16-k0 (antibody, human IgG1, kappa)
heavy: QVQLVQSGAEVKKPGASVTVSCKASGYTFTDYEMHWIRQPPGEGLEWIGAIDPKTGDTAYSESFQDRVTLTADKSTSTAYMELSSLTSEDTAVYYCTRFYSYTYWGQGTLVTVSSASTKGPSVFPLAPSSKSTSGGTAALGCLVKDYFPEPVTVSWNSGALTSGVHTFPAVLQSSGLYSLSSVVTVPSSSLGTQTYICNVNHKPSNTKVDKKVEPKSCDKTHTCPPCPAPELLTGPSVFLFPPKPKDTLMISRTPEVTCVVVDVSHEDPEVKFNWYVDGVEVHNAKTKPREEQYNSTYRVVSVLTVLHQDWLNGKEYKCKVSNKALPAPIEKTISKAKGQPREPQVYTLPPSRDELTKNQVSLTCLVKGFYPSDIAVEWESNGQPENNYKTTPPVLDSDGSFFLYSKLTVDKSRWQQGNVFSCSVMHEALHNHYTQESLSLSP
light: DIVMTQSPLSLPVTPGEPASISCQASESLVHSNRNTYLHWYLQKPGQSPQLLIYKVSNRFSGVPDRFSGSGSGTDFTLKISRVEAEDVGVYYCSQNTHVPPTFGQGTKVEIERTVAAPSVFIFPPSDEQLKSGTASVVCLLNNFYPREAKVQWKVDNALQSGNSQESVTEQDSKDSTYSLSSTLTLSKADYEKHKVYACEVTHQGLSSPVTKSFNRGEC
notes: also called Ho Ab G236_14T
B4: GpH7-B3 variant G237_02A/GpL16-k0 (antibody, human IgG1, kappa)
heavy: not shown
light: DIVMTQSPLSLPVTPGEPASISCQASESLVHSNRNTYLHWYLQKPGQSPQLLIYKVSNRFSGVPDRFSGSGSGTDFTLKISRVEAEDVGVYYCSQNTHVPPTFGQGTKVEIERTVAAPSVFIFPPSDEQLKSGTASVVCLLNNFYPREAKVQWKVDNALQSGNSQESVTEQDSKDSTYSLSSTLTLSKADYEKHKVYACEVTHQGLSSPVTKSFNRGEC
notes: also called Ho Ab G237_02A
B5: GpH7-B3 variant G237_04F/GpL16-k0 (antibody, human IgG1, kappa)
heavy: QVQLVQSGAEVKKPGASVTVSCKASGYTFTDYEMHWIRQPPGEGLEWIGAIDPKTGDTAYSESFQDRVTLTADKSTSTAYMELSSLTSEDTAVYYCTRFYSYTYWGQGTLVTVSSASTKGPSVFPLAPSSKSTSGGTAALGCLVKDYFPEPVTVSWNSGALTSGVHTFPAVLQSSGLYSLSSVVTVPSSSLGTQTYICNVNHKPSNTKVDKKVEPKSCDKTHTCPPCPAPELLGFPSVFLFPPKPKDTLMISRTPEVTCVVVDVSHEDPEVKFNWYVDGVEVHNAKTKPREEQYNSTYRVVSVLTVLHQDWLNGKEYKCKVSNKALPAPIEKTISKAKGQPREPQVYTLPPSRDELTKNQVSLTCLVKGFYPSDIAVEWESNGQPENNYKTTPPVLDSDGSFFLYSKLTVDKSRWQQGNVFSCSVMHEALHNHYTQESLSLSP
light: DIVMTQSPLSLPVTPGEPASISCQASESLVHSNRNTYLHWYLQKPGQSPQLLIYKVSNRFSGVPDRFSGSGSGTDFTLKISRVEAEDVGVYYCSQNTHVPPTFGQGTKVEIERTVAAPSVFIFPPSDEQLKSGTASVVCLLNNFYPREAKVQWKVDNALQSGNSQESVTEQDSKDSTYSLSSTLTLSKADYEKHKVYACEVTHQGLSSPVTKSFNRGEC
notes: also called Ho Ab G237_04F
B6: GpH7-B3 variant G237_06M/GpL16-k0 (antibody, human IgG1, kappa)
heavy: not shown
light: DIVMTQSPLSLPVTPGEPASISCQASESLVHSNRNTYLHWYLQKPGQSPQLLIYKVSNRFSGVPDRFSGSGSGTDFTLKISRVEAEDVGVYYCSQNTHVPPTFGQGTKVEIERTVAAPSVFIFPPSDEQLKSGTASVVCLLNNFYPREAKVQWKVDNALQSGNSQESVTEQDSKDSTYSLSSTLTLSKADYEKHKVYACEVTHQGLSSPVTKSFNRGEC
notes: also called Ho Ab G237_06M
B7: GpH7-B3 variant G237_08L/GpL16-k0 (antibody, human IgG1, kappa)
heavy: not shown
light: DIVMTQSPLSLPVTPGEPASISCQASESLVHSNRNTYLHWYLQKPGQSPQLLIYKVSNRFSGVPDRFSGSGSGTDFTLKISRVEAEDVGVYYCSQNTHVPPTFGQGTKVEIERTVAAPSVFIFPPSDEQLKSGTASVVCLLNNFYPREAKVQWKVDNALQSGNSQESVTEQDSKDSTYSLSSTLTLSKADYEKHKVYACEVTHQGLSSPVTKSFNRGEC
notes: also called Ho Ab G237_08L
B8: GpH7-B3 variant G237_09D/GpL16-k0 (antibody, human IgG1, kappa)
heavy: not shown
light: DIVMTQSPLSLPVTPGEPASISCQASESLVHSNRNTYLHWYLQKPGQSPQLLIYKVSNRFSGVPDRFSGSGSGTDFTLKISRVEAEDVGVYYCSQNTHVPPTFGQGTKVEIERTVAAPSVFIFPPSDEQLKSGTASVVCLLNNFYPREAKVQWKVDNALQSGNSQESVTEQDSKDSTYSLSSTLTLSKADYEKHKVYACEVTHQGLSSPVTKSFNRGEC
notes: also called Ho Ab G237_09D
B9: GpH7-B3 variant G237_10E/GpL16-k0 (antibody, human IgG1, kappa)
heavy: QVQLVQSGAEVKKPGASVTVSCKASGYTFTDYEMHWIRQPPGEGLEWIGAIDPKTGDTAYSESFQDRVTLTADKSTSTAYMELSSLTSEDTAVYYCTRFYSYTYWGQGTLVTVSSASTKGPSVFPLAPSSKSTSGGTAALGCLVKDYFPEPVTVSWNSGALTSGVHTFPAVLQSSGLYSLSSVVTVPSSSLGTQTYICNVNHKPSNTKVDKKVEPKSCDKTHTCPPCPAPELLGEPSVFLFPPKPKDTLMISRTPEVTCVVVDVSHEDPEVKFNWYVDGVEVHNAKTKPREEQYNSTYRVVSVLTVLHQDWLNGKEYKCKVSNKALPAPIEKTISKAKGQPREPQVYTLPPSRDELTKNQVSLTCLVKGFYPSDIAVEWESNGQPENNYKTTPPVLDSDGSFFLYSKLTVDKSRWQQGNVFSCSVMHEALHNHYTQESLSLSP
light: DIVMTQSPLSLPVTPGEPASISCQASESLVHSNRNTYLHWYLQKPGQSPQLLIYKVSNRFSGVPDRFSGSGSGTDFTLKISRVEAEDVGVYYCSQNTHVPPTFGQGTKVEIERTVAAPSVFIFPPSDEQLKSGTASVVCLLNNFYPREAKVQWKVDNALQSGNSQESVTEQDSKDSTYSLSSTLTLSKADYEKHKVYACEVTHQGLSSPVTKSFNRGEC
notes: also called Ho Ab G237_10E
B10: GpH7-B3 variant G237_13S/GpL16-k0 (antibody, human IgG1, kappa)
heavy: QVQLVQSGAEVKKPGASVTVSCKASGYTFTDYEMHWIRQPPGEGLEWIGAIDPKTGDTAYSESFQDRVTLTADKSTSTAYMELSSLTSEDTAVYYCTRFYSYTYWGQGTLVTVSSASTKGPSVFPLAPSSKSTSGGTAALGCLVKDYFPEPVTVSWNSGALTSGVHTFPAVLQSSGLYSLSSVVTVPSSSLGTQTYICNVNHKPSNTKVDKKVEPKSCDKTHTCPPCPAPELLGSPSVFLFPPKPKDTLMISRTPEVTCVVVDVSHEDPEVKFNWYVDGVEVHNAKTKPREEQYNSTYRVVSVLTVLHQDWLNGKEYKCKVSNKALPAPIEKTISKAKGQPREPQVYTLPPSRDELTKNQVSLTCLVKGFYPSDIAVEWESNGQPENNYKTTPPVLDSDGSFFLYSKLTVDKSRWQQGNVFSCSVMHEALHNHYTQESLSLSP
light: DIVMTQSPLSLPVTPGEPASISCQASESLVHSNRNTYLHWYLQKPGQSPQLLIYKVSNRFSGVPDRFSGSGSGTDFTLKISRVEAEDVGVYYCSQNTHVPPTFGQGTKVEIERTVAAPSVFIFPPSDEQLKSGTASVVCLLNNFYPREAKVQWKVDNALQSGNSQESVTEQDSKDSTYSLSSTLTLSKADYEKHKVYACEVTHQGLSSPVTKSFNRGEC
notes: also called Ho Ab G237_13S
B11: GpH7-B3 variant G237_18N/GpL16-k0 (antibody, human IgG1, kappa)
heavy: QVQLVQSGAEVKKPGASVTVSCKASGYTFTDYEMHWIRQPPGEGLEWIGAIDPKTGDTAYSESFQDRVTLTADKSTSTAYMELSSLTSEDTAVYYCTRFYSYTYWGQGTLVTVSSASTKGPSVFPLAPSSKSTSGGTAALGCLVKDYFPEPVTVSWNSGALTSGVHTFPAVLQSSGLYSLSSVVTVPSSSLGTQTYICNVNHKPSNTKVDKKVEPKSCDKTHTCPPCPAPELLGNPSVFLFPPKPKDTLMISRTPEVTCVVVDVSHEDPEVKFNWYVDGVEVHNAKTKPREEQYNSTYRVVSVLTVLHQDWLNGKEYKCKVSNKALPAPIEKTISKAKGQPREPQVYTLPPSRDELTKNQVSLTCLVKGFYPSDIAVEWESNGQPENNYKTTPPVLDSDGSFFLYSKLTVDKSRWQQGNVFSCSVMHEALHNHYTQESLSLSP
light: DIVMTQSPLSLPVTPGEPASISCQASESLVHSNRNTYLHWYLQKPGQSPQLLIYKVSNRFSGVPDRFSGSGSGTDFTLKISRVEAEDVGVYYCSQNTHVPPTFGQGTKVEIERTVAAPSVFIFPPSDEQLKSGTASVVCLLNNFYPREAKVQWKVDNALQSGNSQESVTEQDSKDSTYSLSSTLTLSKADYEKHKVYACEVTHQGLSSPVTKSFNRGEC
notes: also called Ho Ab G237_18N
B12: GpH7-B3 variant G237_19Q/GpL16-k0 (antibody, human IgG1, kappa)
heavy: not shown
light: DIVMTQSPLSLPVTPGEPASISCQASESLVHSNRNTYLHWYLQKPGQSPQLLIYKVSNRFSGVPDRFSGSGSGTDFTLKISRVEAEDVGVYYCSQNTHVPPTFGQGTKVEIERTVAAPSVFIFPPSDEQLKSGTASVVCLLNNFYPREAKVQWKVDNALQSGNSQESVTEQDSKDSTYSLSSTLTLSKADYEKHKVYACEVTHQGLSSPVTKSFNRGEC
notes: also called Ho Ab G237_19Q
B13: GpH7-B3 variant G237_20W/GpL16-k0 (antibody, human IgG1, kappa)
heavy: not shown
light: DIVMTQSPLSLPVTPGEPASISCQASESLVHSNRNTYLHWYLQKPGQSPQLLIYKVSNRFSGVPDRFSGSGSGTDFTLKISRVEAEDVGVYYCSQNTHVPPTFGQGTKVEIERTVAAPSVFIFPPSDEQLKSGTASVVCLLNNFYPREAKVQWKVDNALQSGNSQESVTEQDSKDSTYSLSSTLTLSKADYEKHKVYACEVTHQGLSSPVTKSFNRGEC
notes: also called Ho Ab G237_20W
B14: GpH7-B3 variant H268_01G/GpL16-k0 (antibody, human IgG1, kappa)
heavy: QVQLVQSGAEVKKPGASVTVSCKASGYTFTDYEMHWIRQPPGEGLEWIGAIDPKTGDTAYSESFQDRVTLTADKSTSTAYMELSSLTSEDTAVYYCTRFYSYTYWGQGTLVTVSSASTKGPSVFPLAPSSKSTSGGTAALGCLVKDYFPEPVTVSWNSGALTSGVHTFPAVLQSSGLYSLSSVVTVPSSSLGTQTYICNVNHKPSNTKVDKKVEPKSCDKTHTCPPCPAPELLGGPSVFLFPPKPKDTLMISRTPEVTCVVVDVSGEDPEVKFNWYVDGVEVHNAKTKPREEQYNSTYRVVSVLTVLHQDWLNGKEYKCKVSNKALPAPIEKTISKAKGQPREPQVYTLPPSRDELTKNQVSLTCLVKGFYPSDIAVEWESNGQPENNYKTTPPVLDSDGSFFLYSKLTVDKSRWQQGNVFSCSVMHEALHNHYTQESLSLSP
light: DIVMTQSPLSLPVTPGEPASISCQASESLVHSNRNTYLHWYLQKPGQSPQLLIYKVSNRFSGVPDRFSGSGSGTDFTLKISRVEAEDVGVYYCSQNTHVPPTFGQGTKVEIERTVAAPSVFIFPPSDEQLKSGTASVVCLLNNFYPREAKVQWKVDNALQSGNSQESVTEQDSKDSTYSLSSTLTLSKADYEKHKVYACEVTHQGLSSPVTKSFNRGEC
notes: also called Ho Ab H268_01G
B15: GpH7-B3 variant H268_03V/GpL16-k0 (antibody, human IgG1, kappa)
heavy: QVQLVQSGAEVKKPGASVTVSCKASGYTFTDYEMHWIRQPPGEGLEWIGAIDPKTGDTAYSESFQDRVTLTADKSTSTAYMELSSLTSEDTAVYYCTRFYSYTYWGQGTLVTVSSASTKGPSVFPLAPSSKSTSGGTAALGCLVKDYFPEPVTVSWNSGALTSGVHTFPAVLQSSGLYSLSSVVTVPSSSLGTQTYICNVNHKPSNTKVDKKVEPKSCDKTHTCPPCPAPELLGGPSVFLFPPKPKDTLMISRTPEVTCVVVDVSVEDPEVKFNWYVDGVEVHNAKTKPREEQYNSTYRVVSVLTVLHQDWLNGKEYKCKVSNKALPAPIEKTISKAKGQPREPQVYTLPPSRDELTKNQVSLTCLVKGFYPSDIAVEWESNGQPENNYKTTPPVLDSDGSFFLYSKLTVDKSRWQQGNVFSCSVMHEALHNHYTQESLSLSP
light: DIVMTQSPLSLPVTPGEPASISCQASESLVHSNRNTYLHWYLQKPGQSPQLLIYKVSNRFSGVPDRFSGSGSGTDFTLKISRVEAEDVGVYYCSQNTHVPPTFGQGTKVEIERTVAAPSVFIFPPSDEQLKSGTASVVCLLNNFYPREAKVQWKVDNALQSGNSQESVTEQDSKDSTYSLSSTLTLSKADYEKHKVYACEVTHQGLSSPVTKSFNRGEC
notes: also called Ho Ab H268_03V
B16: GpH7-B3 variant H268_05P/GpL16-k0 (antibody, human IgG1, kappa)
heavy: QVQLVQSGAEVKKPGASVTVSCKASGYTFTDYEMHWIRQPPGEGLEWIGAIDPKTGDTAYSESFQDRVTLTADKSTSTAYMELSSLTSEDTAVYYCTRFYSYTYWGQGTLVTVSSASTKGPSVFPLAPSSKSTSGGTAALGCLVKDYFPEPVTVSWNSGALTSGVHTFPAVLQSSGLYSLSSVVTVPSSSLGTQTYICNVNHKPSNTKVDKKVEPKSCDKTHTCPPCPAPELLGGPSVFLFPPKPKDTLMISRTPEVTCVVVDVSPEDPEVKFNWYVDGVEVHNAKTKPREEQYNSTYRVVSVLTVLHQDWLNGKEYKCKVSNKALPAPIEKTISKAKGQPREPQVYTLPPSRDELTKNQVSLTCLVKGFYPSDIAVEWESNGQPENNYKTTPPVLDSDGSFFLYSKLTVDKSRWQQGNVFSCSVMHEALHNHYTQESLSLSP
light: DIVMTQSPLSLPVTPGEPASISCQASESLVHSNRNTYLHWYLQKPGQSPQLLIYKVSNRFSGVPDRFSGSGSGTDFTLKISRVEAEDVGVYYCSQNTHVPPTFGQGTKVEIERTVAAPSVFIFPPSDEQLKSGTASVVCLLNNFYPREAKVQWKVDNALQSGNSQESVTEQDSKDSTYSLSSTLTLSKADYEKHKVYACEVTHQGLSSPVTKSFNRGEC
notes: also called Ho Ab H268_05P
B17: GpH7-B3 variant H268_11K/GpL16-k0 (antibody, human IgG1, kappa)
heavy: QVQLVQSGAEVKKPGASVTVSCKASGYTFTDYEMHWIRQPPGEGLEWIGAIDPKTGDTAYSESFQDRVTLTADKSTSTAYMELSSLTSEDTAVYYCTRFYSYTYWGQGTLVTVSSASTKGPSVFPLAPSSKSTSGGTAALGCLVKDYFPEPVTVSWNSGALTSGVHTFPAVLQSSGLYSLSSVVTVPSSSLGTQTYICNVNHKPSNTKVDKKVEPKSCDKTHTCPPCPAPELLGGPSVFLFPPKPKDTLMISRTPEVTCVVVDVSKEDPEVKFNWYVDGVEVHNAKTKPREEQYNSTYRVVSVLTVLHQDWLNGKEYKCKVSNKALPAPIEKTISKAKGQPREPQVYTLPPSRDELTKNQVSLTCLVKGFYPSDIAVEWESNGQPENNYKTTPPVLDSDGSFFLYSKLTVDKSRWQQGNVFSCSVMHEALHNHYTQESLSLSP
light: DIVMTQSPLSLPVTPGEPASISCQASESLVHSNRNTYLHWYLQKPGQSPQLLIYKVSNRFSGVPDRFSGSGSGTDFTLKISRVEAEDVGVYYCSQNTHVPPTFGQGTKVEIERTVAAPSVFIFPPSDEQLKSGTASVVCLLNNFYPREAKVQWKVDNALQSGNSQESVTEQDSKDSTYSLSSTLTLSKADYEKHKVYACEVTHQGLSSPVTKSFNRGEC
notes: also called Ho Ab H268_11K
B18: GpH7-B3 variant H268_12R/GpL16-k0 (antibody, human IgG1, kappa)
heavy: not shown
light: DIVMTQSPLSLPVTPGEPASISCQASESLVHSNRNTYLHWYLQKPGQSPQLLIYKVSNRFSGVPDRFSGSGSGTDFTLKISRVEAEDVGVYYCSQNTHVPPTFGQGTKVEIERTVAAPSVFIFPPSDEQLKSGTASVVCLLNNFYPREAKVQWKVDNALQSGNSQESVTEQDSKDSTYSLSSTLTLSKADYEKHKVYACEVTHQGLSSPVTKSFNRGEC
notes: also called Ho Ab H268_12R
B19: GpH7-B3 variant H268_15Y/GpL16-k0 (antibody, human IgG1, kappa)
heavy: not shown
light: DIVMTQSPLSLPVTPGEPASISCQASESLVHSNRNTYLHWYLQKPGQSPQLLIYKVSNRFSGVPDRFSGSGSGTDFTLKISRVEAEDVGVYYCSQNTHVPPTFGQGTKVEIERTVAAPSVFIFPPSDEQLKSGTASVVCLLNNFYPREAKVQWKVDNALQSGNSQESVTEQDSKDSTYSLSSTLTLSKADYEKHKVYACEVTHQGLSSPVTKSFNRGEC
notes: also called Ho Ab H268_15Y
B20: GpH7-B3 variant H268_20W/GpL16-k0 (antibody, human IgG1, kappa)
heavy: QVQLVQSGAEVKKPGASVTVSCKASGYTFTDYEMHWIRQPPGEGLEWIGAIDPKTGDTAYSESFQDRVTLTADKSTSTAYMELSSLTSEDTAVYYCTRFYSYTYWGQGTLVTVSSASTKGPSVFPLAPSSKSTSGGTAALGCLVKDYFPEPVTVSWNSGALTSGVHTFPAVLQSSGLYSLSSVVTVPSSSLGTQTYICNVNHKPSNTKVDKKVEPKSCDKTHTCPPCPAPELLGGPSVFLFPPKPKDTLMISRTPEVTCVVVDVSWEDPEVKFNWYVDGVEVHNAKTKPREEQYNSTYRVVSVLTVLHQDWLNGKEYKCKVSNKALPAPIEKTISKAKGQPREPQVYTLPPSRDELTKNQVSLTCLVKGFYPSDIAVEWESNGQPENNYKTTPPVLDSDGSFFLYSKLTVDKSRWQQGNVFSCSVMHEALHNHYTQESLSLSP
light: DIVMTQSPLSLPVTPGEPASISCQASESLVHSNRNTYLHWYLQKPGQSPQLLIYKVSNRFSGVPDRFSGSGSGTDFTLKISRVEAEDVGVYYCSQNTHVPPTFGQGTKVEIERTVAAPSVFIFPPSDEQLKSGTASVVCLLNNFYPREAKVQWKVDNALQSGNSQESVTEQDSKDSTYSLSSTLTLSKADYEKHKVYACEVTHQGLSSPVTKSFNRGEC
notes: also called Ho Ab H268_20W
B21: GpH7-B3 variant I332_06M/GpL16-k0 (antibody, human IgG1, kappa)
heavy: not shown
light: DIVMTQSPLSLPVTPGEPASISCQASESLVHSNRNTYLHWYLQKPGQSPQLLIYKVSNRFSGVPDRFSGSGSGTDFTLKISRVEAEDVGVYYCSQNTHVPPTFGQGTKVEIERTVAAPSVFIFPPSDEQLKSGTASVVCLLNNFYPREAKVQWKVDNALQSGNSQESVTEQDSKDSTYSLSSTLTLSKADYEKHKVYACEVTHQGLSSPVTKSFNRGEC
notes: also called Ho Ab I332_06M

Target: T1, FcγRIIa R
Assay: SPR Biacore; vs GpH7-B3/GpL16-k0 =100
Description: Analysis of interaction between objective antibody and the FcγR was carried out using Biacore T100 (GE Healthcare). HBS-EP+ (GE Healthcare) was used as the running buffer, and the measurement temperature was set to 25° C. Chips produced by immobilizing the antigen peptide by the amine coupling method to a Series S Sencor Chip CM5 (GE Healthcare), or alternatively, chips produced by allowing preliminarily biotinylated antigen peptides to interact with and immobilize onto a Series S Sensor Chip SA (certified) (GE Healthcare) were used. Antibodies of interest were captured onto an antigen peptide-immobilized chip, and allowed to interact to each FcγR diluted with running buffer. To regenerate and repeatedly use the chip, the antibodies captured on the chip were washed off by reacting 10 mM glycine-HCl, pH 1.5.
The FcγR-binding activity of each antibody was assessed primarily using as an indicator the FcγR-binding activity and dissociation constant for FcγR.

Row | Binder | Ho/Con_2aR
1 | B1 | 96.5 % of control
2 | B2 | 96.2 % of control
3 | B3 | 80 % of control
4 | B4 | 84 % of control
5 | B5 | 113 % of control
6 | B6 | 55.3 % of control
7 | B7 | 56.6 % of control
8 | B8 | 73.1 % of control
9 | B9 | 22.5 % of control
10 | B10 | 44.4 % of control
11 | B11 | 73.6 % of control
12 | B12 | 14.3 % of control
13 | B13 | 107 % of control
14 | B14 | 122 % of control
15 | B15 | 105 % of control
16 | B16 | 95.9 % of control
17 | B17 | 93.4 % of control
18 | B18 | 98.5 % of control
19 | B19 | 106 % of control
20 | B20 | 110 % of control
21 | B21 | 105 % of control
